Data reported in patent US20240052063A1, “Binding Proteins 2” (Nucleus Therapeutics Pty. Ltd., priority 2017, published 2024).

Legend:
Format in all cases: cell-based
[1] = system: HDR-proficient DLD1 cells; assay: Selectivity of combination therapy in HDR-proficient cells; conditions: 5 nM olaparib, 10 μM di-scFv, alone or combined
Procedure: Homology-directed repair (HDR) deficient BRCA2-DLD1 cells and PTEN-U251 cells were treated with control, 5 nM olaparib, 10 μM di-scFv, or 10 μM di-scFv+5 nM olaparib. Surviving fraction was determined by colony formation assay.
It was then determined whether the combination of di-scFv and olaparib is simply universally cytotoxic, regardless of DNA repair status. To evaluate this possibility, HDR-proficient DLD1 cells were treated with the above regimen to confirm selectivity of combination therapy to HDR-deficient malignant cells.

[2] = system: PTEN-deficient U87 human glioma cells; assay: Cell viability by Trypan blue exclusion assay and light microscopy; conditions: PTEN-deficient U87, 7 days after treatment, FIG. 9
Procedure: Cell viability of PTEN-deficient U87 human glioma cells was also assessed following treatment with control media or media containing Variants 10, 13, 15, or 16. Cell viability was determined 7 days after treatment using Trypan blue exclusion assay and by direct visualization of cell morphology by light microscopy.

[3] = system: BRCA2-proficient DLD1 colon cancer cells; assay: Cell viability by Trypan blue exclusion assay, BRCA2-proficient cells; conditions: BRCA2-proficient DLD1, 7 days, FIG. 10
Procedure: (§1) Next, a matched pair of BRCA2-proficient and deficient DLD1 colon cancer cells was treated with control media or media containing Variants 10, 13, 15, or 16. Cell viability was determined 7 days later by Trypan blue exclusion assay and by direct visualization of cell morphology by light microscopy. […] Representative light microscope images shown the changes in morphology in the BRCA2-deficient cancer cells treated with the variants are shown in FIG. 10, Panel A. Quantitative analysis of the cell survival by Trypan blue exclusion assay is shown in FIG. 10, Panel B.

DLD1 colon cancer cells = assay: Alkaline phosphatase-based survey of nuclear penetration; conditions: DLD1 cells treated one hour; FIG. 5
[4] = system: BRCA2-deficient DLD1 colon cancer cells; assay: Cell viability by Trypan blue exclusion assay, BRCA2-deficient cells; conditions: BRCA2-deficient DLD1, 7 days, FIG. 10
Procedure: as §1

[5] = system: PTEN-deficient U251 human glioma cells; assay: Phospho-53BP1 foci accumulation (DNA damage), PTEN-deficient cells; conditions: PTEN-deficient U251, twenty-four hours, FIG. 8
Procedure: A matched pair of PTEN-proficient and deficient U251 human glioma cells were treated with control media or media containing Variant 10, 11, 13, 15, or 16 for twenty-four hours. Cells were then washed, fixed, blocked, and then probed with an anti-phospho-53BP1 antibody overnight. Cells were then washed and incubated with an AlexaFluor555-conjugated secondary antibody. Finally, cells were washed, counterstained with DAPI, and visualized under a fluorescence microscope. Images were saved and evaluated by CellProfiler to determine mean number of phospho-53BP1 foci per cell.
A matched pair of BRCA2-proficient and deficient DLD1 colon cancer cells and PTEN-proficient and deficient U251 human glioma cells were treated with control media or media containing 10 μM di-scFv variant 13 (SEQ ID NO: 41), 5 nM olaparib, or combination treatment.

Molecule | cell death [1] | cell viability relative to control treated cells [2] | cell viability (toxicity) [3] | nuclear penetration (histogram of cell counts versus nuclear staining intensity) relative to the yeast prototype (DLD1 colon cancer cells) | cell viability (cell killing) [4] | mean number of phospho-53BP1 foci per cell [5]
O=C(c1cc(Cc2n[nH]c(=O)c3ccccc23)ccc1F)N1CCN(C(=O)C2CC2)CC1 [olaparib, reference compound] | remain resistant | – | – | – | – | –
Variant 15: cell penetrating anti-DNA di-scFv variant, amino acid sequence SEQ ID NO: 43 (protein, Variant 15) scFv: DIQMTQSPSSLSASLGDRATITCRASKTVSTSSYSYMHWYQQKPGQPPKLLIKYASYLESGVPSRFSGSGSGTDFTLTISSLQPEDAATYYCQHSREFPWTFGGGTKVEIKRADAAPGGGGSGGGGSGGGGSEVQLVESGGGDVKPGGSLRLSCAASGFTFSNYGMHWVRQAPEKGLEWVSYISSGSSTIYYADSVKGRFTISRDNSKNTLYLQMNSLRAEDTAVYYCARRGLLLDYWGQGTTVTVSSASTKGPSVFPLAPLESSGSDIQMTQSPSSLSASLGDRATITCRASKTVSTSSYSYMHWYQQKPGQPPKLLIKYASYLESGVPSRFSGSGSGTDFTLTISSLQPEDAATYYCQHSREFPWTFGGGTKVEIKRADAAPGGGGSGGGGSGGGGSEVQLVESGGGDVKPGGSLRLSCAASGFTFSNYGMHWVRQAPEKGLEWVSYISSGSSTIYYADSVKGRFTISRDNSKNTLYLQMNSLRAEDTAVYYCARRGLLLDYWGQGTTVTVSS | – | caused reductions in cell viability | not toxic | notable right shift and narrowing of distributions relative to the yeast prototype | killed by the variants | increased the number of foci
Variant 10: cell penetrating anti-DNA di-scFv variant, amino acid sequence SEQ ID NO: 38 (protein, Variant 10) scFv: DIQMTQSPSSLSASVGDRVTITCRASKSVSTSSYSYMHWYQQKPGKAPKLLIKYASYLESGVPSRFSGSGSGTDFTLTISSLQPEDFATYYCQHSREFPWTFGQGTKVEIKRADAAPGGGGSGGGGSGGGGSEVQLVESGGGLVQPGGSLRLSCAASGFTFSNYGMHWVRQAPGKGLEWVSYISSSSSTIYYADSVKGRFTISRDNAKNSLYLQMNSLRAEDTAVYYCARRGLLLDYWGQGTTVTVSSASTKGPSVFPLAPLESSGSDIQMTQSPSSLSASVGDRVTITCRASKSVSTSSYSYMHWYQQKPGKAPKLLIKYASYLESGVPSRFSGSGSGTDFTLTISSLQPEDFATYYCQHSREFPWTFGQGTKVEIKRADAAPGGGGSGGGGSGGGGSEVQLVESGGGLVQPGGSLRLSCAASGFTFSNYGMHWVRQAPGKGLEWVSYISSSSSTIYYADSVKGRFTISRDNAKNSLYLQMNSLRAEDTAVYYCARRGLLLDYWGQGTTVTVSS | – | caused reductions in cell viability | not toxic | – | killed by the variants | increased the number of foci
Variant 16: cell penetrating anti-DNA di-scFv variant, amino acid sequence SEQ ID NO: 44 (protein, Variant 16) scFv: DIQMTQSPSSLSASVGDRVTITCRASKTVSTSSYSYMHWYQQKPGKAPKLLIKYASYLESGVPSRFSGSGSGTDFTLTISSLQPEDFATYYCQHSREFPWTFGQGTKVEIKRADAAPGGGGSGGGGSGGGGSEVQLVESGGGLVQPGGSLRLSCAASGFTFSNYGMHWVRQAPGKGLEWVSYISSGSSTIYYADSVKGRFTISRDNAKNSLYLQMNSLRAEDTAVYYCARRGLLLDYWGQGTTVTVSSASTKGPSVFPLAPLESSGSDIQMTQSPSSLSASVGDRVTITCRASKTVSTSSYSYMHWYQQKPGKAPKLLIKYASYLESGVPSRFSGSGSGTDFTLTISSLQPEDFATYYCQHSREFPWTFGQGTKVEIKRADAAPGGGGSGGGGSGGGGSEVQLVESGGGLVQPGGSLRLSCAASGFTFSNYGMHWVRQAPGKGLEWVSYISSGSSTIYYADSVKGRFTISRDNAKNSLYLQMNSLRAEDTAVYYCARRGLLLDYWGQGTTVTVSS | – | caused reductions in cell viability | not toxic | – | killed by the variants | increased the number of foci
Variant 11: cell penetrating anti-DNA di-scFv variant, amino acid sequence SEQ ID NO: 39 (protein, Variant 11) scFv: DIQMTQSPSSLSASVGDRVTITCRASKSVSTSSYSYMHWYQQKPGKAPKLLIKYASYLESGVPSRFSGSGSGTDFTLTISSLQPEDFATYYCQHSREFPWTFGQGTKVEIKRADAAPGGGGSGGGGSGGGGSEVQLVESGGGVVQPGGSLRLSCAASGFTFSNYGMHWVRQAPEKGLEWVSYISSSSSTIYYADSVKGRFTISRDNSKNTLYLQMNSLRAEDTAVYYCARRGLLLDYWGQGTTVTVSSASTKGPSVFPLAPLESSGSDIQMTQSPSSLSASVGDRVTITCRASKSVSTSSYSYMHWYQQKPGKAPKLLIKYASYLESGVPSRFSGSGSGTDFTLTISSLQPEDFATYYCQHSREFPWTFGQGTKVEIKRADAAPGGGGSGGGGSGGGGSEVQLVESGGGVVQPGGSLRLSCAASGFTFSNYGMHWVRQAPEKGLEWVSYISSSSSTIYYADSVKGRFTISRDNSKNTLYLQMNSLRAEDTAVYYCARRGLLLDYWGQGTTVTVSS | – | – | – | – | – | increased the number of foci
